Data reported in publication PMC2836179 (Biochemistry, 2010).

B1: His6-N-WASp (natural protein, human, UniProt O00401 1-505, looked up)
chain: MSSVQQQPPPPRRVTNVGSLLLTPQENESLFTFLGKKCVTMSSAVVQLYAADRNCMWSKKCSGVACLVKDNPQRSYFLRIFDIKDGKLLWEQELYNNFVYNSPRGYFHTFAGDTCQVALNFANEEEAKKFRKAVTDLLGRRQRKSEKRRDPPNGPNLPMATVDIKNPEITTNRFYGPQVNNISHTKEKKKGKAKKKRLTKADIGTPSNFQHIGHVGWDPNTGFDLNNLDPELKNLFDMCGISEAQLKDRETSKVIYDFIEKTGGVEAVKNELRRQAPPPPPPSRGGPPPPPPPPHNSGPPPPPARGRGAPPPPPSRAPTAAPPPPPPSRPSVAVPPPPPNRMYPPPPPALPSSAPSGPPPPPPSVLGVGPVAPPPPPPPPPPPGPPPPPGLPSDGDHQVPTTAGNKAALLDQIREGAQLKKVEQNSRPVSCSGRDALLDQIRQGIQLKSVADGQESTPPTPAPTSGIVGALMEVMQKRSKAIHSSDEDEDEDDEEDFEDDDEWED
B2: GST-Arg-SH3 (domain or fragment, mouse, UniProt Q4JIM5 107-167, looked up)
chain: SDPNLFVALYDFVASGDNTLSITKGEKLRVLGYNQNGEWSEVRSKNGQGWVPSNYITPVNS
B3: GST-Arg-SH3SH2 (domain or fragment, mouse, UniProt Q4JIM5 107-263, looked up)
chain: SDPNLFVALYDFVASGDNTLSITKGEKLRVLGYNQNGEWSEVRSKNGQGWVPSNYITPVNSLEKHSWYHGPVSRSAAEYLLSSLINGSFLVRESESSPGQLSISLRYEGRVYHYRINTTTDSKVYVTAESRFSTLAELVHHHSTVADGLVTTLHYPA

Key:
Test in all cases: pull-down
[1] = target: full-length Arg (His6-Arg) (mouse, UniProt Q4JIM5 1-1182)
full-length Arg (His6-Arg), sequence (Q4JIM5 whole entry): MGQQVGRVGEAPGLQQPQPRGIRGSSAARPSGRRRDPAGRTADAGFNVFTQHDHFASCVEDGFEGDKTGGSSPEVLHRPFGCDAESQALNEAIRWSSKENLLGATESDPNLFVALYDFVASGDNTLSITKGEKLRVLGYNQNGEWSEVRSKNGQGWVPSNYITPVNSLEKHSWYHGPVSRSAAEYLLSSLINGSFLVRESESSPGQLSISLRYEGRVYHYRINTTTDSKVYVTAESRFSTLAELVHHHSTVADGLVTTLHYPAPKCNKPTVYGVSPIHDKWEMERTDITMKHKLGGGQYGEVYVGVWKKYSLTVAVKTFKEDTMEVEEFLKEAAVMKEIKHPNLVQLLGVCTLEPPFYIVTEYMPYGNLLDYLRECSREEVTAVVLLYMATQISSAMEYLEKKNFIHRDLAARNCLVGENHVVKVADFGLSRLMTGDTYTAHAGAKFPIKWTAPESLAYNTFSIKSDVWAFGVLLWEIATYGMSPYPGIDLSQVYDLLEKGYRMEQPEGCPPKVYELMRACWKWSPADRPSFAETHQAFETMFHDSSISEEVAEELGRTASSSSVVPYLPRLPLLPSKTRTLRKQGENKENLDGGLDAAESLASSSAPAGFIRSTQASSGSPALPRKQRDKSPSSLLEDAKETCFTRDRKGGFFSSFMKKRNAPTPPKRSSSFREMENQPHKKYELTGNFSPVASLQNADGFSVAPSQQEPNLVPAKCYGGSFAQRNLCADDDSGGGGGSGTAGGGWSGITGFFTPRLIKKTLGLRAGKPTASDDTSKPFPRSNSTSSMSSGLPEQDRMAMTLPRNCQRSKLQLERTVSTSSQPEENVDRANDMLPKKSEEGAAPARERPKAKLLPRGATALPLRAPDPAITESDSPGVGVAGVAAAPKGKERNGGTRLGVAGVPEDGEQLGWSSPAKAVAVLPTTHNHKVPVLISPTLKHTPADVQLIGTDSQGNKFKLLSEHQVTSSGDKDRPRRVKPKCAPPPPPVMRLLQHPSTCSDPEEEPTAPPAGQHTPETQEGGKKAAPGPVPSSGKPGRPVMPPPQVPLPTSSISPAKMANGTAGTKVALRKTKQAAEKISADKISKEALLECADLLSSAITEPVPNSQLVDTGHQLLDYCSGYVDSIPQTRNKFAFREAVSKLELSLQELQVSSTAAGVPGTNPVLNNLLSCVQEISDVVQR

His6-N-WASp = target: B1
[2] = target: Phosphorylated N-WASp (pN-WASp) (human, UniProt O00401 1-505, tyrosine phosphorylated by co-expressed Arg; Y256 is the primary site)

Binder | Kd [1] | Kd (His6-N-WASp) | Kd [2]
B1 | ≥ 3800 nM | – | –
B2 | – | 1400 ± 200 nM | –
B3 | – | ≥ 3700 nM | 1700 ± 100 nM
